# Results: US10253076B2, “Peptides and combination of peptides for use in immunotherapy against ovarian cancer and other cancers” (immatics biotechnologies GmbH, priority 2015, dated 2019)
# Biological target: HLA-A*02:01 (Homo sapiens, UniProt P04439, D140Y/D185E/D98H/E176V/E277Q/G131W/G231S/I119V/I121R/I166T/I218V/L300P/L318F/N151K/N90K/P208A/P217A/Q86G/Q94H/R138H/R169H/T345S)
# Assay: MHC binding assay (UV-ligand exchange, beta2m ELISA, peptide exchange yield)
# Conditions: binding of HLA-class I restricted peptides to HLA-A*02:01, ranged by peptide exchange yield (UV-ligand exchange, β2m ELISA)
# Text: Candidate peptides for T cell based therapies according to the present invention were further tested for their MHC binding capacity (affinity). The individual peptide-MHC complexes were produced by UV-ligand exchange, where a UV-sensitive peptide is cleaved upon UV-irradiation, and exchanged with the peptide of interest as analyzed. Only peptide candidates that can effectively bind and stabilize the peptide-receptive MHC molecules prevent dissociation of the MHC complexes. To determine the yield of the exchange reaction, an ELISA was performed based on the detection of the light chain (β2m) of stabilized MHC complexes. The assay was performed as generally described in Rodenko et al. (Rodenko et al., 2006).
# 96 well MAXISorp plates (NUNC) were coated over night with 2ug/ml streptavidin in PBS at room temperature, washed 4× and blocked for 1 h at 37° C. in 2% BSA containing blocking buffer. […] Peptide-MHC monomers of the UV-exchange reaction were diluted 100 fold in blocking buffer. Samples were incubated for 1 h at 37° C., washed four times, incubated with 2ug/ml HRP conjugated anti-82m for 1 h at 37° C., washed again and detected with TMB solution that is stopped with […]. Absorption was measured at 450 nm. Candidate peptides that show a high exchange yield (preferably higher than 50%, most preferred higher than 75%) are generally preferred for a generation and production of antibodies or fragments thereof, and/or T cell receptors or fragments thereof, as they show sufficient avidity to the MHC molecules and prevent dissociation of the MHC complexes.
row,Substance,Peptide exchange
1,225 (SLLKVLPAL; listed as Homo sapiens) [compound 225],″+++″ (≥50% = +++)
2,604 (SILDRDDIFV; listed as Homo sapiens) [compound 604],″+++″ (≥50% = +++)
3,244 (SLFGGTEITI; listed as Homo sapiens) [compound 244],″+++″ (≥50% = +++)
4,598 (FLFPHSVLV; listed as Homo sapiens) [compound 598],″+++″ (≥50% = +++)
5,622 (RLLGEEVVRVLQA; listed as Homo sapiens) [compound 622],″+++″ (≥50% = +++)
6,539 (ALFDAQAQV; listed as Homo sapiens) [compound 539],″+++″ (≥50% = +++)
7,350 (ALLDVTHSELTV; listed as Homo sapiens) [compound 350],″+++″ (≥50% = +++)
8,400 (SLLTEQDLWTV; listed as Homo sapiens) [compound 400],″++″ (≥20% = ++)
9,210 (LLLNAVLTV; listed as Homo sapiens) [compound 210],″++″ (≥20% = ++)
10,196 (YLYSVEIKL; listed as Homo sapiens) [compound 196],″++++″ (≥75% = ++++)
11,187 (RQISIRGIVGV; listed as Homo sapiens) [compound 187],″+++″ (≥50% = +++)
12,54 (SLLEQGKEPWMV; listed as Homo sapiens) [compound 54],″+++″ (≥50% = +++)
13,193 (QLLDADGFLNV; listed as Homo sapiens) [compound 193],″+++″ (≥50% = +++)
14,605 (KLYEAVPQL; listed as Homo sapiens) [compound 605],″+++″ (≥50% = +++)
15,487 (LLINSVFHV; listed as Homo sapiens) [compound 487],″+++″ (≥50% = +++)
16,574 (YLLQEPPRTV; listed as Homo sapiens) [compound 574],″++″ (≥20% = ++)
17,516 (AVGPASILKEV; listed as Homo sapiens) [compound 516],″++″ (≥20% = ++)

row,Substance,Peptide exchange
1,192 (KMLDGASFTL; listed as Homo sapiens) [compound 192],″+++″ (≥50% = +++)
2,440 (ALADGVTMQV; listed as Homo sapiens) [compound 440],″++″ (≥20% = ++)
3,99 (ALVSKGLATV; listed as Homo sapiens) [compound 99],″++″ (≥20% = ++)
4,272 (ALGNTVPAV; listed as Homo sapiens) [compound 272],″+++″ (≥50% = +++)
5,169 (NLPEYLPFV; listed as Homo sapiens) [compound 169],″+++″ (≥50% = +++)
6,177 (YLLPEEYTSTL; listed as Homo sapiens) [compound 177],″++++″ (≥75% = ++++)
7,226 (MLYVVPIYL; listed as Homo sapiens) [compound 226],″++″ (≥20% = ++)
8,17 (GLLPGDRLVSV; listed as Homo sapiens) [compound 17],″+++″ (≥50% = +++)
9,250 (ALSEEGLLVYL; listed as Homo sapiens) [compound 250],″+++″ (≥50% = +++)
10,436 (HLAEVSAEV; listed as Homo sapiens) [compound 436],″+++″ (≥50% = +++)
11,167 (KVLEVTEEFGV; listed as Homo sapiens) [compound 167],″+++″ (≥50% = +++)
12,24 (SLSDGLEEV; listed as Homo sapiens) [compound 24],″++″ (≥20% = ++)
13,494 (ALQPEPIKV; listed as Homo sapiens) [compound 494],″++″ (≥20% = ++)
14,200 (LLFGSVQEV; listed as Homo sapiens) [compound 200],″+++″ (≥50% = +++)
15,597 (KLLEGQVIQL; listed as Homo sapiens) [compound 597],″+++″ (≥50% = +++)
16,512 (SLSEIVPCL; listed as Homo sapiens) [compound 512],″+++″ (≥50% = +++)

# More lines, now with the values ahead:
row,Peptide exchange,Substance
1,″+++″ (≥50% = +++),194 (ALPLFVITV; listed as Homo sapiens) [compound 194]
2,″+++″ (≥50% = +++),519 (GLLHLTLLL; listed as Homo sapiens) [compound 519]
3,″+++″ (≥50% = +++),288 (NLINEINGV; listed as Homo sapiens) [compound 288]
4,″++″ (≥20% = ++),559 (VTVPPGPSL; listed as Homo sapiens) [compound 559]
5,″++++″ (≥75% = ++++),168 (KILDADIQL; listed as Homo sapiens) [compound 168]
6,″+++″ (≥50% = +++),35 (KINDTIYEV; listed as Homo sapiens) [compound 35]
7,″++++″ (≥75% = ++++),61 (FLQGYQLHL; listed as Homo sapiens) [compound 61]
8,″++″ (≥20% = ++),432 (TLIEESAKV; listed as Homo sapiens) [compound 432]
9,″+++″ (≥50% = +++),464 (ALNDCIYSV; listed as Homo sapiens) [compound 464]
10,″+++″ (≥50% = +++),206 (VLQEGKLQKLAQL; listed as Homo sapiens) [compound 206]
11,″+++″ (≥50% = +++),342 (HIYDKVMTV; listed as Homo sapiens) [compound 342]
12,″++++″ (≥75% = ++++),568 (TLYDIAHTPGV; listed as Homo sapiens) [compound 568]
13,″+++″ (≥50% = +++),276 (ALFTFSPLTV; listed as Homo sapiens) [compound 276]
14,″+++″ (≥50% = +++),613 (RLLPPGAVVAV; listed as Homo sapiens) [compound 613]
15,″+++″ (≥50% = +++),5 (HLTEVYPEL; listed as Homo sapiens) [compound 5]
16,″++++″ (≥75% = ++++),159 (GLVGNPLPSV; listed as Homo sapiens) [compound 159]
17,″++++″ (≥75% = ++++),552 (GLLDLPFRVGV; listed as Homo sapiens) [compound 552]
18,″+++″ (≥50% = +++),569 (KLVDRTWTL; listed as Homo sapiens) [compound 569]
19,″+++″ (≥50% = +++),456 (LLIGHLERV; listed as Homo sapiens) [compound 456]

row,Peptide exchange,Substance
1,″+++″ (≥50% = +++),12 (SLWPDPMEV; listed as Homo sapiens) [compound 12]
2,″++″ (≥20% = ++),565 (ALQETPTSV; listed as Homo sapiens) [compound 565]
3,″+++″ (≥50% = +++),263 (LLVSNLDFGV; listed as Homo sapiens) [compound 263]
4,″+++″ (≥50% = +++),26 (ALLELAEEL; listed as Homo sapiens) [compound 26]
5,″+++″ (≥50% = +++),481 (GLIEDYEALL; listed as Homo sapiens) [compound 481]
6,″+++″ (≥50% = +++),593 (GLPRFGIEMV; listed as Homo sapiens) [compound 593]
7,″++++″ (≥75% = ++++),52 (FLLAHGLGFLL; listed as Homo sapiens) [compound 52]
8,″+++″ (≥50% = +++),262 (LLWGDLIWL; listed as Homo sapiens) [compound 262]
9,″++++″ (≥75% = ++++),611 (YLLDDGTLVV; listed as Homo sapiens) [compound 611]
10,″+++″ (≥50% = +++),396 (ALLPDLPAL; listed as Homo sapiens) [compound 396]
11,″++++″ (≥75% = ++++),55 (SLLDLETLSL; listed as Homo sapiens) [compound 55]
12,″+++″ (≥50% = +++),22 (IMEENPGIFAV; listed as Homo sapiens) [compound 22]
13,″++″ (≥20% = ++),429 (GLVNDLARV; listed as Homo sapiens) [compound 429]
14,″+++″ (≥50% = +++),110 (FLSQVDFEL; listed as Homo sapiens) [compound 110]
15,″++″ (≥20% = ++),354 (LILEGVDTV; listed as Homo sapiens) [compound 354]
16,″+++″ (≥50% = +++),497 (GLLEKLTAI; listed as Homo sapiens) [compound 497]
17,″++″ (≥20% = ++),253 (GLDAATATV; listed as Homo sapiens) [compound 253]
18,″+++″ (≥50% = +++),280 (VLPDPEVLEAV; listed as Homo sapiens) [compound 280]
19,″++″ (≥20% = ++),220 (LLQKFVPEI; listed as Homo sapiens) [compound 220]
